According to paper PMC3963918, “CCHCR1 Interacts Specifically with the E2 Protein of Human Papillomavirus Type 16 on a Surface Overlapping BRD4 Binding” (PLoS ONE, 2014):

T1: HPV16 E2 protein fused to Gaussia luciferase fragment GL2 (human papillomavirus type 16, UniProt P03120 1-365)
T1 construct: source: 293 T cells, transfected (pSPICA-N2), in lysate
T1 sequence: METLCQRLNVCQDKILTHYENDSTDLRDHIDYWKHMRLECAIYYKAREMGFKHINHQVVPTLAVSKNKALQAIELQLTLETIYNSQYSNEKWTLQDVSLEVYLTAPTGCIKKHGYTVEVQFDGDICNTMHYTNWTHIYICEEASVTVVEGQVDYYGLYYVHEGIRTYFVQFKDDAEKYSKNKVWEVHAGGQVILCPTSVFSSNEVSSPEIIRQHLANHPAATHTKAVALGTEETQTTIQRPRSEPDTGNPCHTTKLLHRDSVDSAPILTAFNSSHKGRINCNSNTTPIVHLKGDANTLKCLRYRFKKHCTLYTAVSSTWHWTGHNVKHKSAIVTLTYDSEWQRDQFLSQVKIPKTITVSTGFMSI


Assays:
[1] = target: T1, HPV16 E2 protein fused to Gaussia …; experiment: split reporter (BiFC, NanoBiT); conditions: partners not purified
[2] = target: T1, HPV16 E2 protein fused to Gaussia …; experiment: split reporter (BiFC, NanoBiT); GPCA competition: GL1 and GL2 partners plus a 3XFlag-tagged challenging protein (0.5 ug of each plasmid) in 293 T cells, 12-well plates, harvested 40 h after transfection; NLR relative to empty plasmid; conditions: partners not purified

Binder | NLR (Normalized Luminescence Ratio) [1] | fold decrease of the NLR of HPV16 E2 with BRD4 in the presence of CCHCR1 [2]
CCHCR1 (Coiled-Coil alpha HeliCal Rod protein 1), polypeptide from amino acid 137 to the stop codon, fused to Gaussia luciferase fragment GL1 (domain or fragment, also called Pg8; SBP) KAGRAEAEGLRAALAGAEVVRKNLEEGSQRELEEVQRLHQEQLSSLTQAHEEALSSLTSKAEGLEKSLSSLETRRAGEAKELAEAQREAELLRKQLSKTQEDLEAQVTLVENLRKYVGEQVPSEVHSQTWELERQKLLETMQHLQEDRDSLHATAELLQVRVQSLTHILALQEEELTRKVQPSDSLEPEFTRKCQSLLNRWREKVFALMVQLKAQELEHSDSVKQLKGQVASLQEKVTSQSQEQAILQRSLQDKAAEVEVERMGAKGLQLELSRAQEARRRWQQQTASAEEQLRLVVNAVSSSQIWLETTMAKVEGAAAQLPSLNNRLSYAVRKVHTIRGLIARKLALAQLRQESCPLPPPVTDVSLELQQLREERNRLDAELQLSARLIQQEVGRAREQGEAERQQLSKVAQQLEQELQQTQESLASLGLQLEVARQGQQESTEEAASLRQELTQQQELYGQALQEKVAEVETRLREQLSDTERRLNEARREHAKAVVSLRQIQRRAAQEKERSQELRRLQEEARKEEGQRLARRLQELERDKNLMLATLQQEGLLSRYKQQRLLTVLPSLLDKKKSVVSSPRPPECSASAPVAAAVPTRESIKGSLSVLLDDLQDLSEAISKEEAVCQGDNLDRCSSSNPQMSS | ~250 | –
3XFLAG-tagged CCHCR1, shorter E2-interacting isoform (amino acid 137 to the stop codon) (domain or fragment, also called Flag-CCHCR1; 3XFLAG CCHCR1; source: 293 T cells, transfected (pCiNeo-3XF), in lysate) KAGRAEAEGLRAALAGAEVVRKNLEEGSQRELEEVQRLHQEQLSSLTQAHEEALSSLTSKAEGLEKSLSSLETRRAGEAKELAEAQREAELLRKQLSKTQEDLEAQVTLVENLRKYVGEQVPSEVHSQTWELERQKLLETMQHLQEDRDSLHATAELLQVRVQSLTHILALQEEELTRKVQPSDSLEPEFTRKCQSLLNRWREKVFALMVQLKAQELEHSDSVKQLKGQVASLQEKVTSQSQEQAILQRSLQDKAAEVEVERMGAKGLQLELSRAQEARRRWQQQTASAEEQLRLVVNAVSSSQIWLETTMAKVEGAAAQLPSLNNRLSYAVRKVHTIRGLIARKLALAQLRQESCPLPPPVTDVSLELQQLREERNRLDAELQLSARLIQQEVGRAREQGEAERQQLSKVAQQLEQELQQTQESLASLGLQLEVARQGQQESTEEAASLRQELTQQQELYGQALQEKVAEVETRLREQLSDTERRLNEARREHAKAVVSLRQIQRRAAQEKERSQELRRLQEEARKEEGQRLARRLQELERDKNLMLATLQQEGLLSRYKQQRLLTVLPSLLDKKKSVVSSPRPPECSASAPVAAAVPTRESIKGSLSVLLDDLQDLSEAISKEEAVCQGDNLDRCSSSNPQMSS | – | 5 fold
